Changes are numbered by the printed parent chain. Read-outs that look alike come from different tables or passages of the source. Each block holds one binder with its values, some of them ahead of it.
How the values were obtained:
[1] = molecular target: T1, cynomolgus monkey PCSK9 (cynomolgus monkey, UniProt A0A7N9D9N8 150-747); assay: ELISA
T1 chain: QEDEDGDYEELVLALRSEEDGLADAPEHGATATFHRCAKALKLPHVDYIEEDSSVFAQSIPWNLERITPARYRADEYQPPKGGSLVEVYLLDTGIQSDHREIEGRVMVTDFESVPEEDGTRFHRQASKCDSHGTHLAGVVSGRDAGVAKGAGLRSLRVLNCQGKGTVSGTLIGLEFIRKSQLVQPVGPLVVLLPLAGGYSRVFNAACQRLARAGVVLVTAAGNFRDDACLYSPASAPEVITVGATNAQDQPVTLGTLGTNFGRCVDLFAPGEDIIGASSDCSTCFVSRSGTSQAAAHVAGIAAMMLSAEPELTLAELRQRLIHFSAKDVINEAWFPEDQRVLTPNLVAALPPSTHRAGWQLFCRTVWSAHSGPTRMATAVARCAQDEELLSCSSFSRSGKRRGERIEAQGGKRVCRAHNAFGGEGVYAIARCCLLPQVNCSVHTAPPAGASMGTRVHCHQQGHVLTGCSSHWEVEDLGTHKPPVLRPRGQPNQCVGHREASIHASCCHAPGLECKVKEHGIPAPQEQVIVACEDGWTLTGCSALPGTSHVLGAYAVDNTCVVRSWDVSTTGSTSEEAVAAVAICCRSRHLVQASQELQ

[2] = molecular target: T2, human Proprotein Convertase Subtilisin-like/Kexin type 9 (UniProt Q8NBP7 31-692); assay: ELISA
[3] = molecular target: T2, human Proprotein Convertase …; assay: ELISA; remark: listed apart in the source
Target sequence in this assay (Q8NBP7 31-692): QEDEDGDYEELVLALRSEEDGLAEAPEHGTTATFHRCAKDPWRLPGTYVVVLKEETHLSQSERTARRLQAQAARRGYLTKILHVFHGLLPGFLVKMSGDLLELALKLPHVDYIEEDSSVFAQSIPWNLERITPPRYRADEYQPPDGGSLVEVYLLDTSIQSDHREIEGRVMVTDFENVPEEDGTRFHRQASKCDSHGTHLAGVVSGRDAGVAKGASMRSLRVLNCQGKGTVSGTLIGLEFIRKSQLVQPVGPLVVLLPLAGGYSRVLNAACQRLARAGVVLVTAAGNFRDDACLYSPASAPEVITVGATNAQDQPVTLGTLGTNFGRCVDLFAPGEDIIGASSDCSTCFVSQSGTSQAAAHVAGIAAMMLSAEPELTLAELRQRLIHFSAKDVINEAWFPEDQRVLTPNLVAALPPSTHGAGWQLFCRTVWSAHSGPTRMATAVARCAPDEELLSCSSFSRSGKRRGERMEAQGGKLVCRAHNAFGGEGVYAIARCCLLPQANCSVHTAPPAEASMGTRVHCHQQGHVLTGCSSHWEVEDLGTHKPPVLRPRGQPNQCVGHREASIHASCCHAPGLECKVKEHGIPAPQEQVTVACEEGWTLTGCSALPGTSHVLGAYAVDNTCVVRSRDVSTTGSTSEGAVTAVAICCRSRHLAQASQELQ

[4] = molecular target: T2, human Proprotein Convertase …; assay: ELISA; remark: listed apart in the source
[5] = molecular target: T1, cynomolgus monkey PCSK9; assay: ELISA
[6] = molecular target: T2, human Proprotein Convertase …; assay: ELISA; remark: listed apart in the source
[7] = molecular target: T2, human Proprotein Convertase …; assay: PCSK9-LDLR blocking ELISA

- EC50 [4]: 0.0492 nM
B4: Ab22 (antibody, V domains shown)
VH: EVQLVESGGGLVQPGGSLRLSCAASGFSLSSYAMNWVRQAPGKGLEWIGAIRSSGATFFASSVNGRFTISRDNSKNTVYLQMNSLRAEDTAVYYCARDTNDGWYINRLDLWGQGTLVTVSS
VL: AVLTQSPSTLSASVGDRVTITCQSSKSVYSNYLSWFQQKPGKAPKFLIYKASTLASGVPSRFSGSGSGTEFTLTISSLQPDDFATYYCAGGDTNIADNAFGGGTKVEIKR

- EC50 [5]: 0.161 nM
B6: Ab15 (antibody, V domains shown)
VH: QEQLEESGGDLVKPEGSLTLTCTASGFSFSSSYWICWVRQAPGKGLEWIACIDAGNSGSTYYASWAKGRFTISKASSTTVTLQMTSLTAADTATYFCASDLNDGWLGQFNLWGPGTLVTVSS
VL: NIVMTQTPSPVSGAVGGTVTIKCQASQSISDYLAWYQQKPGQPPKLLIYRASTLASGVPSRFRGSGSGTEYTLTITDLECADAATYYCQSYYSVTTNTYGNTFGGGTEVVVKR

- EC50 [6]: 0.178 nM
B7: Ab24 (antibody, V domains shown)
VH: QSLEESGGDLVKPGASLTLTCKASGFSFSSGYYMCWVRQAPGKGLEWIACIYAGSGGSTFFANWAKGRFTISKTSSTTVTLQMTSLTAADTATYFCARDGGYAGYGYAFFNLWGPGTLVTVSS
VL: DVVMTQTPASVSEPVGGTVTIKCQASERIYSGLAWYQQKPGQPPKLLIYGASTLASGVPSRFKGSGSGTDFTLTISDLECDDAAIYYCQATYYGSSYPNVFGGGTEVVVKR

- IC50 [7]: 0.81 nM
B8: Ab23 (antibody, V domains shown)
VH: B7 VH
VL: B7 VL with A90C

Continued, binder first:

B1: Ab7 (antibody, V domains shown)
VH: EVQLVESGGGLVQPGGSLRLSCAASGFTVSSNYWICWVRQAPGKGLEWIGCIRDGGGTYYASSAKGRFTISRDNSKNTLYLQMNSLRAEDTAVYYCASDINDGWLGQFNLWGQGTLVTVSS
VL: DIVMTQSPSSLSASVGDRVTIKCQASQSISAYLAWYQQKPGKVPKLLIYRAYTLASGVPSRFSGSGSGTDFTLTISSLQPEDVATYYCQSYYSVTTNTYGNTFGGGTKVEIKR
- EC50 [1]: 0.103 nM
- EC50 [2]: 0.104 nM

B2: Ab9 (antibody, V domains shown)
VH: QSVEESGGRLVTPGTPLTLTCTVSGIDLSSYAMGWVRQAPGKGLEYIGIIVSYGPTYYASWAKGRFTISKTSTTVDLKITSPTAEDTATYFCARDLDANSSGYYGCFNIWGQGTLVTVSS
VL: AVVLTQTPASVSAAVGGTVTIKCQASQSISTALAWYQQKPGQPPKLLIYAASPLASGVSSRFKSSGSGTEFTLTISDLECADAATYYCQSYYGSSNIAFGGGTELEILR
- EC50 [3]: 0.098 nM

B3: Ab5 (antibody, V domains shown)
VH: QSVEESGGRLVTPGTPLTLTCTVSGFSLSSYAMSWVRQAPGKGLEWIGIISNSGTTYYASWAKGRFTISKTSTTVDLKITSPTTEDTATYFCARGIYWYWRVFNLWGPGTLVTVSS
VL: AVLTQTPSPVSAAVGGTVTINCQASQSVYNNLLSWYQQKPGQPPKLLIYDASNLASGVPDRFSGSGSGTQFTLTISGVQCDDAATYYCLGGYDDDADNAFGGGTEVVVKR
- EC50 [3]: 0.116 nM
- EC50 [1]: 0.169 nM

B5: Ab13 (antibody, V domains shown)
VH: QSVEESGGRLVTPGTPLTLTCTVSGIDLSTYGVGWVRQAPGKGLEYIGIISSSGSTYYASWAKGRFTISKTSSTTVDLKMTSLTTEDTATYFCARDWSSTTGYYGYFNMWGPGTLVTVSS
VL: AFELTQTPSPVSAAVGGTVTIKCQASQSISTALAWYQQKPGQPPKLLIYGASNLESGVPSRFSGSGSGTQFTLTISDLECADAAIYYCQSSYGSSTLAFGGGTEVVVKR
- EC50 [2]: 0.124 nM

B9: Ab6 (antibody, V domains shown)
VH: QEQLEESGGDLVKPEGSLTLTCTASGFSFSSNYWICWVRQAPGKGLEWIGCIRDGGGTYYASWAKGRLTISMTSSTTVTLQLNSLTAADTATYFCASDINDGWLGQFNLWGPGTLVTVSS
VL: DIVMTQTPASVEVAVGGTVTIKCQASQSISAYLAWYQQKPGQPPKLLIYRAYTLASGVPSRFKGSGSGTQFTLTISDLECADAATYYCQSYYSVTTNTYGNTFGGGTEVVVKR
- EC50 [3]: 0.117 nM
- EC50 [1]: 0.112 nM

B10: Ab10 (antibody, V domains shown)
VH: B9 VH with N32S, G50A, D54A, T58N, S62N, L68F, M72R, L82M, N83T
VL: B9 VL with D1N, V13A, A31N, A51T, Y52S, N97V, T98A
- EC50 [2]: 0.126 nM

B11: Ab8 (antibody, V domains shown)
VH: QEQLVESGGGLVQPEGSLTLTCTASGFSFTSDYYMCWVRQAPGKGLEWIGCISTGDGSTYYASWAKGRFTISKPSSTTVTLQMTRLTAADTATYFCARDRYYSYAYGAYVYASDLWGPGTLVTVSS
VL: DIVMTQTPASVSEPVGGTVTINCQASESIRNYLSWYQQKPGQRPKLLIYGASTLASGVPSRFKGSGSGTDFTLTISDLECADAATYYCQSNYGISSRSYVNGFGGGTEVVVKR
- EC50 [3]: 0.0874 nM
- EC50 [1]: 0.106 nM
